Target: microtubule polymers (Polymerised alpha/beta-tubulin heterodimers (one repeat given). Source is not printed (assay 'as previously described' in a cited paper); commercial mammalian brain tubulin is assumed, porcine taken a)
Assay: co-sedimentation; microtubule pelleting assay; fraction of microtubule-bound Smc5 plotted against microtubule concentration, Kd by curve fitting to a hyperbola; 3 independent experiments
Details: both partners purified

Sequence of microtubule polymers (Polymerised alpha/beta-tubulin heterodimers (one repeat given). Source is not printed (assay 'as previously described' in a cited paper); commercial mammalian brain tubulin is assumed, porcine taken a) (chain, as listed by the source, chain 1 of 2): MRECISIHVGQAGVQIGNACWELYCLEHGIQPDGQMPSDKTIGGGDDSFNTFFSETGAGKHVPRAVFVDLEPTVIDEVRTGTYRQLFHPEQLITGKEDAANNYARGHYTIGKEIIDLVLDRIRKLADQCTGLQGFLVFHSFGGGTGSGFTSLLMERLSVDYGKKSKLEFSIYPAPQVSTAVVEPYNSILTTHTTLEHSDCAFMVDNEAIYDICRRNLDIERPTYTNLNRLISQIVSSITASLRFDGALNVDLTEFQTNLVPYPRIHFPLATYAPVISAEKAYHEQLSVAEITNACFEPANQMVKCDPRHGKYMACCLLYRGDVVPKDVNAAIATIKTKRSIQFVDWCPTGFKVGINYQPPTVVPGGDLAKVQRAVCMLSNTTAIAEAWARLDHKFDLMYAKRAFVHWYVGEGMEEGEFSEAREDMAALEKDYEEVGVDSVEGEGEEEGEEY
Sequence of microtubule polymers (Polymerised alpha/beta-tubulin heterodimers (one repeat given). Source is not printed (assay 'as previously described' in a cited paper); commercial mammalian brain tubulin is assumed, porcine taken a) (chain, as listed by the source, chain 2 of 2): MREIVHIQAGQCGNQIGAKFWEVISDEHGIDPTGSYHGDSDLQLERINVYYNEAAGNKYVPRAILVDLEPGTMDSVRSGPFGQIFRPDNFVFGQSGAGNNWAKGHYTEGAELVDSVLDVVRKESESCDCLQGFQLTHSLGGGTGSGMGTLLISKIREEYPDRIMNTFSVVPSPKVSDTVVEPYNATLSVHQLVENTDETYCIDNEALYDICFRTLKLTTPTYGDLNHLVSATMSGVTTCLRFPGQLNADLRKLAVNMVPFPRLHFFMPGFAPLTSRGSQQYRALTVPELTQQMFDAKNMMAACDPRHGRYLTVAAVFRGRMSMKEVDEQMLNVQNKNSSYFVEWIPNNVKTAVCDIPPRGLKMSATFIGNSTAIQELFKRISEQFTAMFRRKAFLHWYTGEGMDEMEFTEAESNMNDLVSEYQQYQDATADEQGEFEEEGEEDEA

B1: Smc5-2KE hinge domain (residues 215–885, K624E K631E) (domain or fragment, S. cerevisiae, UniProt Q08204 215-885, looked up)
chain: LRELQGNEQSLQKDLDFKKAKIVHLRQESDKLRKSVESLRDFQNKKGEIELHSQLLPYVKVKDHKEKLNIYKEEYERAKANLRAILKDKKPFANTKKTLENQVEELTEKCSLKTDEFLKAKEKINEIFEKLNTIRDEVIKKKNQNEYYRGRTKKLQATIISTKEDFLRSQEILAQTHLPEKSVFEDIDIKRKEIINKEGEIRDLISEIDAKANAINHEMRSIQRQAESKTKSLTTTDKIGILNQDQDLKEVRDAVLMVREHPEMKDKILEPPIMTVSAINAQFAAYLAQCVDYNTSKALTVVDSDSYKLFANPILDKFKVNLRELSSADTTPPVPAETVRDLGFEGYLSDFITGDKRVMKMLCQTSKIHTIPVSRRELTPAQIKKLITPRPNGKILFKRIIHGNRLVDIEQSAYGSEQVFPTDVSIKQTNFYQGSIMSNEQKIRIENEIINLKNEYNDRKSTLDALSNQKSGYRHELSELASKNDDINREAHQLNEIRKKYTMRKSTIETLREKLDQLKREARKDVSQKIKDIDDQIQQLLLKQRHLLSKMASSMKSLKNCQKELISTQILQFEAQNMDVSMNDVIGFFNEREADLKSQYEDKKKFVKEMRDTPEFQSWMREIRSYDQDTKEKLNKVAEKYEEEGNFNLSFVQDVLDKLESEIAMVNHDES
notes: Smc5, S. cerevisiae, hinge domain construct, residues 215-885, with K624E and K631E; source: purified
  fold reduction in binding affinity against wild-type Smc5: 3 fold
